B1: Autophagy-related protein 13 (Homo sapiens), O75143 (parent)
chain: METDLNSQDRKDLDKFIKFFALKTVQVIVQARLGEKICTRSSSSPTGSDWFNLAIKDIPEVTHEAKKALAGQLPAVGRSMCVEISLKTSEGDSMELEIWCLEMNEKCDKEIKVSYTVYNRLSLLLKSLLAITRVTPAYRLSRKQGHEYVILYRIYFGEVQLSGLGEGFQTVRVGTVGTPVGTITLSCAYRINLAFMSTRQFERTPPIMGIIIDHFVDRPYPSSSPMHPCNYRTAGEDTGVIYPSVEDSQEVCTTSFSTSPPSQLSSSRLSYQPAALGVGSADLAYPVVFAAGLNATHPHQLMVPGKEGGVPLAPNQPVHGTQADQERLATCTPSDRTHCAATPSSSEDTETVSNSSEGRASPHDVLETIFVRKVGAFVNKPINQVTLTSLDIPFAMFAPKNLELEDTDPMVNPPDSPETESPLQGSLHSDGSSGGSSGNTHDDFVMIDFKPAFSKDDILPMDLGTFYREFQNPPQLSSLSIDIGAQSMAEDLDSLPEKLAVHEKNVREFDAFVETLQ

Variants of: B1
Settings: with MAP1LC3A

effect of a mutation on the interaction | Variant
decreasing interaction strength | M446A
decreasing interaction strength | I447A
decreasing interaction strength | D443A
decreasing interaction strength | F444A
decreasing interaction strength | D442A
decreasing interaction strength | V445A
